Test results from patent publication US20200017862.
Positions count from the first letter of the chain named. Names may count otherwise.

B1: GST-APE2 (recombinant GST-tagged Xenopus APE2) (protein)
chain: MKIVSWNINGIRATRVGLKETLDSLDADIICLQETKVTRDLLDEPSAIVEGYNSYFSFSRVRSGYSGVATFCKSSTTPQAAEEGLSGVFCNRTGSVGCYGNTEQFLEEELQSLDQEGRAVLTQHRILNCEDKEETLTVINVYCPRADPEKPERKTYKLRFYHLLQTRAEAILQNGGHVIILGDVNTSHRPLDHCDPTDLETFEENPGRQWLNQFLGDPIPSQKGDSETVMPPSAGSGLFYDSFRYFHPTQKNAFTCWCSASGARQTNYGTRIDYILGNRELVESEFLDSVIMPEVEGSDHCPVKAFMKCQPIAANKCPPLCTKYLPEFAGRQQKLLQFLVKKENTLGNTTEESSELTGTPSFTEGADISTVRKRPSDKLNSTSKKKSKIVTKNGQGNLLSFFKPERQKLTMATECNPIEVPICKKEKTVQKDLQPATPAVKYNKPQTAFWKSLLKGPPPPPNCKGHSEPCVLRTVKKAGPNCGRQFYVCARPEGHSSNPQARCNFFLWLTKKAGCED
B2: C470A Myc-APE2 (protein)
chain: B1 chain with C470A
B3: G483A-R484A Myc-APE2 (protein)
chain: B1 chain with G483A, R484A
B4: WT Myc-APE2 (recombinant Myc-tagged Xenopus APE2) (protein)
chain: B1 chain

Key:
[1] = target: LI PCNA (His-tagged mutant Xenopus PCNA), P18248
LI PCNA (His-tagged mutant Xenopus PCNA), P18248, sequence (P18248 other isoform, or with tags, fused parts or gaps mutant): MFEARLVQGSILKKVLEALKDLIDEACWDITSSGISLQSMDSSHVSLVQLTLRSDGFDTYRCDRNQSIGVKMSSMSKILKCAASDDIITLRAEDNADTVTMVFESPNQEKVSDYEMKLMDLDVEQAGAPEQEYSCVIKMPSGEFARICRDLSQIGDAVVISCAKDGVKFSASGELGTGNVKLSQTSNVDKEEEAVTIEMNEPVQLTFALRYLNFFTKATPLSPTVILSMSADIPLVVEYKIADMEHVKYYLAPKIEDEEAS

[2] = target: WT His-tagged PCNA (recombinant Xenopus PCNA), P18248
WT His-tagged PCNA (recombinant Xenopus PCNA), P18248, sequence (P18248 whole entry): as the sequence (P18248 other isoform, or with tags, fused parts or gaps mutant) above, with A126L, A128I counted along it

[3] = target: PK PCNA (P253A-K254A PCNA, His-tagged), P18248
PK PCNA (P253A-K254A PCNA, His-tagged), P18248, sequence (P18248 whole entry P253A/K254A): as the sequence (P18248 other isoform, or with tags, fused parts or gaps mutant) above, with A126L, A128I, P253A, K254A counted along it

[4] = target: LIPK PCNA (L126A-I128A-P253A-K254A PCNA, His-tagged), P18248
LIPK PCNA (L126A-I128A-P253A-K254A PCNA, His-tagged), P18248, sequence (P18248 whole entry L126A/I128A/P253A/K254A): as the sequence (P18248 other isoform, or with tags, fused parts or gaps mutant) above, with P253A, K254A counted along it

[5] = target: PCNA, endogenous, in Xenopus egg extract (HSS), P18248
PCNA, endogenous, in Xenopus egg extract (HSS), P18248, sequence (P18248 whole entry): as the sequence (P18248 other isoform, or with tags, fused parts or gaps mutant) above, with A126L, A128I counted along it

| Protein | exonuclease activity on FAM-labeled gapped dsDNA (Type I resected products), purified proteins in vitro [1] | exonuclease activity on FAM-labeled gapped dsDNA (Type I resected products), purified proteins in vitro [2] | exonuclease activity on FAM-labeled gapped dsDNA (Type I resected products), purified proteins in vitro [3] | exonuclease activity on FAM-labeled gapped dsDNA (Type I resected products), purified proteins in vitro [4] | 3'-5' SSB end resection of FAM-SSB in APE2-depleted HSS [5] | SSB-induced Chk1 phosphorylation in APE2-depleted HSS [5] | recruitment of RPA32, ATR, ATRIP, TopBP1, and Rad9 to SSB plasmid in APE2-depleted HSS [5] | hydrogen peroxide-induced Chk1 phosphorylation in APE2-depleted LSS [5] |
| --- | --- | --- | --- | --- | --- | --- | --- | --- |
| B1 | The gapped dsDNA was catalyzed into Type I resected products by recombinant APE2 with the presence of WT PCNA, but not LIPK PCNA, LI PCNA, or PK PCNA | The gapped dsDNA was catalyzed into Type I resected products by recombinant APE2 with the presence of WT PCNA, but not LIPK PCNA, LI PCNA, or PK PCNA | The gapped dsDNA was catalyzed into Type I resected products by recombinant APE2 with the presence of WT PCNA, but not LIPK PCNA, LI PCNA, or PK PCNA | The gapped dsDNA was catalyzed into Type I resected products by recombinant APE2 with the presence of WT PCNA, but not LIPK PCNA, LI PCNA, or PK PCNA |  |  |  |  |
| B2 |  |  |  |  | VVT APE2 but not C470A APE2 rescued the deficiency of SSB end resection of FAM-SSB in APE2-depleted HSS | WT, but not C470A, APE2 was found to rescue the SSB-induced Chk1 phosphorylation in APE2-depleted HSS | WT APE2, but not C470A APE2, rescued the recruitment of RPA32, ATR, ATRIP, TopBP1, and Rad9 to SSB in APE2-depleted HSS |  |
| B3 |  |  |  |  |  | G483A-R484A APE2, which is deficient in interaction with ssDNA and PCNA CTM motif (FIGS. 12D and 12E), also failed to rescue the SSB-induced Chk1 phosphorylation in APE2-depleted HSS |  | VVT APE2, but not G483A-R484A APE2, rescued the hydrogen peroxide-induced Chk1 phosphorylation in APE2-depleted LSS system |
| B4 |  |  |  |  | VVT APE2 but not C470A APE2 rescued the deficiency of SSB end resection of FAM-SSB in APE2-depleted HSS | WT, but not C470A, APE2 was found to rescue the SSB-induced Chk1 phosphorylation in APE2-depleted HSS | WT APE2, but not C470A APE2, rescued the recruitment of RPA32, ATR, ATRIP, TopBP1, and Rad9 to SSB in APE2-depleted HSS | VVT APE2, but not G483A-R484A APE2, rescued the hydrogen peroxide-induced Chk1 phosphorylation in APE2-depleted LSS system |
